# Measurements from US20100022445A1 (BAXALTA, published 2010).
# *1 amine or outer side, *2 acyl side, *3 side chain or, on linkers, in order; H or OH if unused. Where no end group is shown, it is not given here. [ ]: non-standard residue; d: D form. NH(CH2)3(OCH2CH2)2O(CH2)3NH = C(CN[*:1])COCCOCCOCCCN[*:2]
# How the values were obtained:
# [1] = biological target: HERG channel (UniProt Q12809 1-1159, limits assumed); assay: cell-based or functional assay
# [2] = biological target: mouse plasma; assay: equilibrium dialysis (HTD-96, 12-14 kD cut-off), 5 µM A01 in undiluted mouse plasma, 6 h at 37 °C, LC/MS/MS
# [3] = biological target: human plasma; assay: equilibrium dialysis (HTD-96, 12-14 kD cut-off), 5 µM A01 in undiluted human plasma, 6 h at 37 °C, LC/MS/MS
# Sequence of HERG channel (Q12809 whole entry): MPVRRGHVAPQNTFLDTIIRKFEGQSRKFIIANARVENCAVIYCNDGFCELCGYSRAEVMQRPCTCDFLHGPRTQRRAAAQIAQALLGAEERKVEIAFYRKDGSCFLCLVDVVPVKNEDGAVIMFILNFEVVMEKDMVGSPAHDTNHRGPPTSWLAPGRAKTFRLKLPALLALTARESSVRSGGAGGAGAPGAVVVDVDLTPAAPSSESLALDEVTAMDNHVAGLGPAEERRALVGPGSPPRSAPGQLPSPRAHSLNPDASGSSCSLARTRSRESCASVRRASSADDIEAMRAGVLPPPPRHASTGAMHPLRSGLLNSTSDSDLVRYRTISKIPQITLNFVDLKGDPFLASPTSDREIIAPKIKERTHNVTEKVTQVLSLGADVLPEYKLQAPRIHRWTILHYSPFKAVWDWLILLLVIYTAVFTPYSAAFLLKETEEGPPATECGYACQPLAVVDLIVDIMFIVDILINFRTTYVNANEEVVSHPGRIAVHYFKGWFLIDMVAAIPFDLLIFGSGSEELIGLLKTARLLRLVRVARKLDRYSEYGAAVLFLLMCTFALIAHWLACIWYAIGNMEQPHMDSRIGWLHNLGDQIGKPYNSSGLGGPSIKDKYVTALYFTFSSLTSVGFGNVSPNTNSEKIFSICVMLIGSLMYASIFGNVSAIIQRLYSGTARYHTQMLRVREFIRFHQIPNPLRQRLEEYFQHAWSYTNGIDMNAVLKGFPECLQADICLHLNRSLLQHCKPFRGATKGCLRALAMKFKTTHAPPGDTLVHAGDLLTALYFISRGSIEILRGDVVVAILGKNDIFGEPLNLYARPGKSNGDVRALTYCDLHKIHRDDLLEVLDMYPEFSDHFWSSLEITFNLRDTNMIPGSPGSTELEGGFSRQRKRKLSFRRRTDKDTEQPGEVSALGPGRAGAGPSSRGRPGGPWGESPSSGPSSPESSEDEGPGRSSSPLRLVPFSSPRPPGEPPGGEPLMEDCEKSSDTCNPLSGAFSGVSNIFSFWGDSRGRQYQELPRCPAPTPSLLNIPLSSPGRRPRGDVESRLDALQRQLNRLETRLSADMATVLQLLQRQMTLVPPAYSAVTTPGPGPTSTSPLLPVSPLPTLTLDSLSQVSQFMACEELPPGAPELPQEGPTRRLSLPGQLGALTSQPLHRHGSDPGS
binder,measurement,setting,value
Ac-PMKFDVWDLYFEIVW-NH2 [A02 (Ac-PMKFDVWDLYFEIVW-NH2)],HERG inhibition Rb+ efflux (% Inhibition at 10 µM),[1],-3.3%
Ac-WDLYFEIVWE [A06 (Ac-WDLYFEIVWE)],HERG inhibition Rb+ efflux (% Inhibition at 10 µM),[1],-6.4%
Ac-RMKFDVWDLYFEIVW-NH2 [A01 (Ac-…-NH2)],Average % Bound,[2],> 99.2%
same,Average % Bound,[3],> 98.3%
Ac-WDLYFEIVW-NH2 [A05 (Ac-WDLYFEIVW-NH2)],HERG inhibition patch-clamp (% Inhibition of Tail Current at 1 µM),[1],14.5%
Ac-RMKFDVWDLYFEIVW-NH2 [A01 (Ac-RMKFDVWDLYFEIVW-NH2)],HERG inhibition patch-clamp (% Inhibition of Tail Current at 1 µM),[1],16.5%
Ac-[dC][dI][dM][dF][dW][dY][dD][dE][dY][dE]-NH2 (SMILES CC[C@@H](C)[C@@H](NC(=O)[C@@H](CS)NC(C)=O)C(=O)N[C@H](CCSC)C(=O)N[C@H](Cc1ccccc1)C(=O)N[C@H](Cc1c[nH]c2ccccc12)C(=O)N[C@H](Cc1ccc(O)cc1)C(=O)N[C@H](CC(=O)O)C(=O)N[C@H](CCC(=O)O)C(=O)N[C@H](Cc1ccc(O)cc1)C(=O)N[C@H](CCC(=O)O)C(N)=O) [B03 (Ac-cimfwydeye-NH2)],HERG inhibition Rb+ efflux (% Inhibition at 10 µM),[1],-2.1%
same,HERG inhibition patch-clamp (% Inhibition of Tail Current at 1 µM),[1],84.5%
ERMEFDVWDLYFEIVW-NH2 [A09 (ERMEFDVWDLYFEIVW-NH2)],HERG inhibition Rb+ efflux (% Inhibition at 10 µM),[1],-1.6%
Ac-WDLYFEIVW[NH(CH2)3(OCH2CH2)2O(CH2)3NH]E [A07 (Ac-WDLYFEIVW-ttds-E)],HERG inhibition Rb+ efflux (% Inhibition at 10 µM),[1],-3.4%
PEG5000-RMKFDVWDLYFEIVW-NH2 [A16 (PEG5000-RMKFDVWDLYFEIVW-NH2)],HERG inhibition patch-clamp (% Inhibition of Tail Current at 1 µM),[1],22.2%
